# Experimental data: patent publication US20020076719A1 (ROCKEFELLER UNIVERSITY, published 2002)
# T1: hTRF2 dimerization domain (amino acid 45 to amino acid 246), LexA and GAD fusion proteins (human, UniProt Q15554 87-288)
# T1 construct: Built both as a LexA and as a GAD fusion; also called dimerization domain of hTRF2; not shown: two-hybrid fusion partner, LexA or GAD depending on the construct (vectors pBTM116 and pACT2)
# T1 sequence: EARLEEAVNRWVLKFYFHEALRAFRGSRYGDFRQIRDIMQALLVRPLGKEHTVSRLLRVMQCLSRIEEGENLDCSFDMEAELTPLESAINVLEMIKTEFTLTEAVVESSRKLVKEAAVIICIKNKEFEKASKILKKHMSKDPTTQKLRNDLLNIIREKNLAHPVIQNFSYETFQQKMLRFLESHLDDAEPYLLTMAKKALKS
# T2: untagged mTRF2 (mouse, UniProt O35144 46-541, limits assumed)
# T2 construct: In vitro translated and 35S-methionine labelled; also called mouse TRF2
# T2 sequence: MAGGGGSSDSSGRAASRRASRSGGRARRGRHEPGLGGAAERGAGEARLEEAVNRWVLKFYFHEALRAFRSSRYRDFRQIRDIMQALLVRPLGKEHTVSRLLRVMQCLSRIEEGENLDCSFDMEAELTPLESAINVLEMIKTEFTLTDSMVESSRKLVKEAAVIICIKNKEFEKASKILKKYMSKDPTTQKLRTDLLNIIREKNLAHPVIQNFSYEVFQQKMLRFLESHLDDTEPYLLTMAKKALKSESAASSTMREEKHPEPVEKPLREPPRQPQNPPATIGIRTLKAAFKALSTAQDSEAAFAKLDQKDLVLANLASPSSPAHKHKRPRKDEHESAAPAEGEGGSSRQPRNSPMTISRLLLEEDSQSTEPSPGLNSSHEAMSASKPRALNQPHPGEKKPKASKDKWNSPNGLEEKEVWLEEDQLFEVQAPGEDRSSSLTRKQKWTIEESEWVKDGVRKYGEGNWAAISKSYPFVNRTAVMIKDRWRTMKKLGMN
# T3: FLAG-tagged mTRF2ΔN-49 (mouse, UniProt O35144 94-541)
# T3 construct: also called mTRF2 DN-49; deletion mutant mTRF2ΔN-49
# T3 sequence: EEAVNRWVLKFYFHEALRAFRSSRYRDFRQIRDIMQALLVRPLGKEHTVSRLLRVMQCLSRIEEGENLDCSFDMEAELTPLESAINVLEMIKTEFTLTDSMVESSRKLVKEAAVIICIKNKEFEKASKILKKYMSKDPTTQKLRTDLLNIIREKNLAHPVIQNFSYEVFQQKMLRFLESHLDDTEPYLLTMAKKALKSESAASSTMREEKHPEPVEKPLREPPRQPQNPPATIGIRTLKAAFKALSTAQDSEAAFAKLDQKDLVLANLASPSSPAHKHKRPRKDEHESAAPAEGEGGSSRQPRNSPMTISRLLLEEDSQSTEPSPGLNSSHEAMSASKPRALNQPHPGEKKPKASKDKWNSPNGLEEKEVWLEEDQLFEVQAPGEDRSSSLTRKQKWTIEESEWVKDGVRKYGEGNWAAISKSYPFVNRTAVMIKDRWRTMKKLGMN
# Columns and labels:
# [1] = biological target: T1, hTRF2 dimerization domain (amino acid …); experiment: yeast 2-hybrid, b-galactosidase activity
# Description: (§1) FIG. 12: TRF2 interacts with TRF2 but not with TRF1. […] Values represent an average of three to nine independent transformants. FIG. 12B depicts in vitro translated ³⁵S-methionine labelled TRF1 and TRF2 proteins with or without an N-terminal FLAG tag (indicated above the lanes) were immunoprecipitated using the M2 anti-FLAG antibodies and analyzed by autoradiography.
# Next the yeast 2-hybrid assay was used to determine whether the dimerization domains of TRF1 and TRF2 can interact. In a large number of trials, no convincing interactions between these proteins in two settings were detected (FIG. 12A). No activation occurred when the dimerization domain of TRF2 was probed for interactions with full length TRF1. In addition, no significant interactions were observed between fusion proteins containing the isolated TRF1 and TRF2 dimerization domains. The weak b-galactosidase activity detected with these proteins is probably due to the inherent slight transactivation activity of the TRF1 dimerization domain (FIG. 12A) which has been noted previously [Bianchi et al., supra, (1997)].
# untagged mTRF2 = biological target: T2, untagged mTRF2; experiment: co-immunoprecipitation of in vitro translated 35S-labelled proteins with M2 anti-FLAG antibody
# Description: as §1
# Co-immunoprecipitation experiments. The human and mouse TRF1 constructs used were previously described [Chong et al., Science, 270:1663-1667 (1995); Broccoli et al., Hum. Mol. Genetics, 6:69-76 (1997); Bianchi et al., supra (1997)]. The FLAG-tagged mTRF2 and untagged mTRF2 were translated from cDNAs described above. ³⁵S-methionine labelled proteins [Chong et al., Science, 270:1663-1667 (1995); Broccoli et al., Hum. Mol. Genetics, 6:69-76 (1997); Bianchi et al., supra, (1997)] were immunoprecipitated using the M2 anti-FLAG antibody in buffer D (20 mM Hepes-KOH pH 7.9, 100 mM KCl, 20% glycerol, 0.2 mM EDTA, 0.2 mM EGTA, 0.1 % NP40, 0.1 % Triton-X-100, 0.5 mM DTT, 0.5 mM PMSF) followed by four washes in buffer D with detergents and two washes in buffer D without detergent. Pellets were suspended in SDS/PAGE loading buffer and resolved on a 9% SDS-polyacrylamide gel.
# FLAG-tagged mTRF2ΔN-49 = biological target: T3, FLAG-tagged mTRF2ΔN-49; experiment: gel-shift assay on extracts of transfected HeLa cells; level of the hTRF1 homodimer complex unaltered
# Description: This new activity was present in excess over the endogenous hTRF1 activity and could be super-shifted with the FLAG antibody (FIG. 10B, lane 4). The mTRF2ΔN-49 mutant protein was also found to localize to telomeric loci in transfected cells (see below). […] Acids Res., 24:1294-303 (1996)].
# Absence of heterodimer formation was further corroborated by co-immunoprecipitation of in vitro translation products (FIG. 12B). […] The lack of heterodimerization is also consistent with the gel-shift assays on extracts from cells over-expressing mTRF2ΔN-49 (FIG. 10B). […] In similar experiments executed with FLAG-tagged hTRF 1, heterodimerization between the endogenous TRF1 and the transfected protein is consistently detected.
binder,measurement,setting,value
"hTRF1 dimerization domain, LexA and GAD fusion proteins (other, also called isolated TRF1 dimerization domain; homodimerization domain of TRF1; not shown: two-hybrid fusion partner, LexA or GAD) LVAEAEAVAAGWMLDFLCLSLCRAFRDGRSEDFRRTRNSAEAIIHGLSSLTACQLRTIYICQFLTRIAAGKTLDAQFENDERITPLESALMIWGSIEKEHDKLHEEIQNLIKIQAIAVCMENGNFKEAEEVFERIFGDPNSHMPFKSKLLMIISQKDTFHSFFQHFSYNHMMEKIKSYVNYVLSEKSSTFLMKAAAKV",binding result,[1],no binding
"FLAG-mTRF1 (mouse TRF) (other, UniProt P70371 2-421, looked up, The co-IP construct is 'previously described'; also called FLAG tagged mouse TRF; not shown: FLAG tag) AETVSSAARDAPSREGWTDSDSPEQEEVGDDAELLQCQLQLGTPREMENAELVAEVEAVAAGWMLDFLCLSLCRAFRDGRSEDFRRTRDSAEAIIHGLHRLTAYQLKTVYICQFLTRVASGKALDAQFEVDERITPLESALMIWNSIEKEHDKLHDEIKNLIKIQAVAVCMEIGSFKEAEEVFERIFGDPEFYTPLERKLLKIISQKDVFHSLFQHFSYSCMMEKIQSYVGDVLSEKSSTFLMKAATKVVENEKARTQASKDRPDATNTGMDTEVGLNKEKSVNGQQSTETEPLVDTVSSIRSHKNALSQLKHRRAPSDFSRNEARTGTLQCETTMERNRRTSGRNRLCVSENQPDTDDKSGRRKRQTWLWEEDRILKCGVKKYGEGNWAKILSHYKFNNRTSVMLKDRWRTMKRLKLIS",binding result,untagged mTRF2,no binding
"hTRF1 (endogenous, HeLa cells) (other, also called endogenous TRF1; human TRF1) AEDVSSAAPSPRRCADGRDADPTEEQMAETERNDEEQFECQELLECQVQVGAPEEEEEEEEDAGLVAEAEAVAAGWMLDFLCLSLCRAFRDGRSEDFRRTRNSAEAIIHGLSSLTACQLRTIYICQFLTRIAAGKTLDAQFENDERITPLESALMIWGSIEKEHDKLHEEIQNLIKIQAIAVCMENGNFKEAEEVFERIFGDPNSHMPFKSKLLMIISQKDTFHSFFQHFSYNHMMEKIKSYVNYVLSEKSSTFLMKAAAKVVESKRTRTITSQDKPSGNDVEMETEANLDTRKSVSDKQSAVTESSEGTVSLLRSHKNLFLSKLQHGTQQQDLNKKERRVGTPQSTKKKKESRRATESRIPVSKSQPVTPEKHRARKRQAWLWEEDKNLRSGVRKYGEGNWSKILLHYKFNNRTSVMLKDRWRTMKKLKLISSDSED",binding result,FLAG-tagged mTRF2ΔN-49,no binding
